In the supplement of paper PMC10567573:

B1: ZNF449 (parent)
chain: RIHSGEEPHKCPECGKRFLRSSDL

Variants of: B1
Assay: protein stability index of a GFP-peptide fusion (GPS, HEK-293T) (PSI 1-6); higher = more stable
Conditions: c terminus: a fixed tail appended
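Note: lentivirally expressed fusions sorted by FACS into six bins by GFP to DsRed ratio, PSI derived from sequencing read proportions per bin multiplied by bin number.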

Protein stability index: each site, then its substitutions
G5: A 3.79 | D 3.74 | E 3.62 | F 3.22 | H 4.07 | I 3.34 | K 3.41 | L 3.68 | M 3.75 | N 3.44 | P 2.85 | Q 3.82 | R 3.2 | S 4.04 | T 4.24 | V 3.07 | W 3.63 | Y 3.56
E6: A 3.24 | D 3.25 | F 2.95 | G 3.23 | H 2.79 | I 3.09 | K 2.88 | L 2.92 | M 2.57 | N 3.08 | P 3.69 | Q 3.1 | R 3.24 | S 1.79 | T 2.71 | V 2.28 | W 2.08 | Y 2.27
E7: A 2.71 | C 4.79 | D 2.82 | F 2.98 | G 2.81 | H 3.45 | I 2.68 | K 2.46 | L 2.98 | M 3.22 | N 2.51 | P 2.95 | Q 3.26 | R 1.89 | T 3.04 | V 2.96 | Y 2.71
P8: A 3.64 | C 3.19 | D 4.1 | E 3.44 | F 2.44 | H 3.18 | I 4.26 | K 2.51 | L 3.41 | M 3.34 | N 3 | Q 4.29 | S 3.25 | T 3.45 | W 3.72 | Y 3.57
H9: A 3.42 | C 4.35 | D 3.5 | E 3.78 | F 3.95 | G 2.99 | I 4.09 | K 3.83 | L 2.19 | M 3.42 | P 3.2 | Q 3.19 | R 3.18 | S 3.28 | T 3.44 | V 4.15 | W 2.73 | Y 3.48
K10: A 3.35 | D 4.19 | E 3.57 | G 3.82 | H 2.95 | I 3.74 | L 3.96 | M 3.17 | N 3.42 | P 3.7 | Q 3.39 | R 3.55 | S 3 | T 3.82 | V 4.17 | W 3.72 | Y 3.94
C11: A 4.32 | D 4.17 | F 3.54 | H 4.41 | I 4.51 | K 4.5 | L 4.11 | M 4.35 | N 4.57 | P 4.23 | R 4.32 | S 3.72 | T 4.17 | V 4.19 | W 3.79 | Y 4.21
P12: A 3.15 | C 3.32 | D 4.36 | E 4.41 | F 3.29 | G 3.08 | H 3.24 | I 2.94 | K 3.2 | L 3.23 | M 3.36 | N 4.18 | Q 3.33 | R 2.92 | S 3.66 | T 3.76 | V 3.5 | W 2.05 | Y 3.12
E13: A 2.72 | C 3.71 | D 2.59 | F 3.77 | G 3.21 | H 3.34 | I 3.26 | K 2.72 | L 3.38 | M 2.92 | N 3.43 | P 3.6 | Q 2.13 | R 2.84 | S 3.63 | T 3.41 | V 3.44 | W 3.86 | Y 3.54
C14: A 4.26 | D 4.58 | E 5.1 | F 3.47 | G 4.65 | H 3.95 | I 5 | K 3.87 | L 3.79
